Source: publication PMC10528150

Biological target: cytochrome c oxidase (ferrocytochrome c:oxygen oxidoreductase), solubilized complex

Row | Activity in the cytochrome c oxidase reaction, % of WT [%] | Activity, s^−1, in the cytochrome c oxidase reaction (oxygen uptake by solubilized CcO with ascorbate and TMPD, 25 °C) [s⁻¹] | Substance
1 | 25 | 54 | cytochrome c with substitutions E69K/K72E (from UniProt P00004 1-105) (natural protein)
2 | < 1 | < 1 | cytochrome c with substitutions K8E/E69K/K72E/K86E/K87E (from UniProt P00004 1-105) (natural protein)
